Reference: publication PMC11983205

Biological target: CD33 (UniProt P20138 18-259)
Assay: LOCK displacement, CHA/Cas12a fluorescence

Chain of CD33 (P20138 18-259): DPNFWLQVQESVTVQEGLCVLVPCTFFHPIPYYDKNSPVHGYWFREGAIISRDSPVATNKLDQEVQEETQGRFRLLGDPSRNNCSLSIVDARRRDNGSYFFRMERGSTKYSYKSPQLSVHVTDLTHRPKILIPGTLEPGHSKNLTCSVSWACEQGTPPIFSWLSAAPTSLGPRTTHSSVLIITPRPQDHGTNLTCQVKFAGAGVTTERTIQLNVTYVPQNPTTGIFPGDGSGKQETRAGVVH

B1: CD33 YES gate DNA1/LOCK (mixed)
DNA 1: TAGCTTATCAGACTGATGTTGATACCAGTGCGATGCTCAGCACGCTTATAGGGGCTGGACAAAATTCTACCCAGCCTTTTCTGACGCATTCGGTTGAC
DNA 2: CACTGGTATCAACATCAGTC
- binding result: binds
